Laboratory results reported in article PMC2908316 (2009).

Target: Gαo (Homo sapiens, UniProt P09471)
Assay: flow cytometry protein interaction assay

Chain of Gαo (P09471 2-354): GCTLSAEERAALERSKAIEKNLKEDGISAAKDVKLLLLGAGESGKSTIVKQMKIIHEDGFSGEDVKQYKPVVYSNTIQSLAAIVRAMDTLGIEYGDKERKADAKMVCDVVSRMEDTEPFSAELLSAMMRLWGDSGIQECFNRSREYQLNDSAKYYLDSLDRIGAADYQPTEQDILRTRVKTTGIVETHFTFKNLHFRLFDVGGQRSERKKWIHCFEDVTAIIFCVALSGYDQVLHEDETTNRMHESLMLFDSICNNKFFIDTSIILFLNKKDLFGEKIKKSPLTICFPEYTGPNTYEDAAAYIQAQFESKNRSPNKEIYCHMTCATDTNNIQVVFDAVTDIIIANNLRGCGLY

Binder	Kd [nM]
RGS4 (protein) MCKGLAGLPASCLRSAKDMKHRLGFLLQKSDSCEHNSSHNKKDKVVICQRVSQEEVKKWAESLENLISHECGLAAFKAFLKSEYSEENIDFWISCEEYKKIKSPSKLSPKAKKIYNEFISVQATKEVNLDSCTREETSRNMLEPTITCFDEAQKKIFNLMEKDSYRRFLKSRFYLDLVNPSSCGAEKQKGAKSSADCASLVPQCA	< 100
RGS16 (protein) MCRTLAAFPTTCLERAKEFKTRLGIFLHKSELGCDTGSTGKFEWGSKHSKENRNFSEDVLGWRESFDLLLSSKNGVAAFHAFLKTEFSEENLEFWLACEEFKKIRSATKLASRAHQIFEEFICSEAPKEVNIDHETHELTRMNLQTATATCFDAAQGKTRTLMEKDSYPRFLKSPAYRDLAAQASAASATLSSCSLDEPSHT	< 100
RGS7 (protein) MAQGNNYGQTSNGVADESPNMLVYRKMEDVIARMQDEKNGIPIRTVKSFLSKIPSVFSGSDIVQWLIKNLTIEDPVEALHLGTLMAAHGYFFPISDHVLTLKDDGTFYRFQTPYFWPSNCWEPENTDYAVYLCKRTMQNKARLELADYEAESLARLQRAFARKWEFIFMQAEAQAKVDKKRDKIERKILDSQERAFWDVHRPVPGCVNTTEVDIKKSSRMRNPHKTRKSVYGLQNDIRSHSPTHTPTPETKPPTEDELQQQIKYWQIQLDRHRLKMSKVADSLLSYTEQYLEYDPFLLPPDPSNPWLSDDTTFWELEASKEPSQQRVKRWGFGMDEALKDPVGREQFLKFLESEFSSENLRFWLAVEDLKKRPIKEVPSRVQEIWQEFLAPGAPSAINLDSKSYDKTTQNVKEPGRYTFEDAQEHIYKLMKSDSYPRFIRSSAYQELLQAKKKSGNSMDRRTSFEKFAQNVGRNIPIFPCHKNCTPTLRASTNLL	< 100
RGS8 (protein) MAALLMPRRNKGMRTRLGCLSHKSDSCSDFTAILPDKPNRALKRLSTEEATRWADSFDVLLSHKYGVAAFRAFLKTEFSEENLEFWLACEEFKKTRSTAKLVSKAHRIFEEFVDVQAPREVNIDFQTREATRKNLQEPSLTCFDQAQGKVHSLMEKDSYPRFLRSKMYLDLLSQSQRRLS	< 100
